Data as given in patent US20050288488.

Columns and labels:
[1] = molecular target: AhR-ARNT heterodimer (human AhR, human ARNT) (Homo sapiens) (UniProt P35869+P27540); experiment: cell_activity; settings: yeast A303 lacZ reporter, average induction over background with bNF or aNF; ligand EC50 7.9e-8 M for bNF
[2] = system: LexA(1-202)-AhR N-delta-166 chimera (Escherichia coli? / Mus musculus?); experiment: cell_activity; settings: yeast GRS4 lacZ reporter, average induction over background with bNF or aNF; ligand EC50 6.1e-8 M for bNF

Chain of AhR-ARNT heterodimer (human AhR, human ARNT) (Homo sapiens) (P35869 whole entry, chain 1 of 2): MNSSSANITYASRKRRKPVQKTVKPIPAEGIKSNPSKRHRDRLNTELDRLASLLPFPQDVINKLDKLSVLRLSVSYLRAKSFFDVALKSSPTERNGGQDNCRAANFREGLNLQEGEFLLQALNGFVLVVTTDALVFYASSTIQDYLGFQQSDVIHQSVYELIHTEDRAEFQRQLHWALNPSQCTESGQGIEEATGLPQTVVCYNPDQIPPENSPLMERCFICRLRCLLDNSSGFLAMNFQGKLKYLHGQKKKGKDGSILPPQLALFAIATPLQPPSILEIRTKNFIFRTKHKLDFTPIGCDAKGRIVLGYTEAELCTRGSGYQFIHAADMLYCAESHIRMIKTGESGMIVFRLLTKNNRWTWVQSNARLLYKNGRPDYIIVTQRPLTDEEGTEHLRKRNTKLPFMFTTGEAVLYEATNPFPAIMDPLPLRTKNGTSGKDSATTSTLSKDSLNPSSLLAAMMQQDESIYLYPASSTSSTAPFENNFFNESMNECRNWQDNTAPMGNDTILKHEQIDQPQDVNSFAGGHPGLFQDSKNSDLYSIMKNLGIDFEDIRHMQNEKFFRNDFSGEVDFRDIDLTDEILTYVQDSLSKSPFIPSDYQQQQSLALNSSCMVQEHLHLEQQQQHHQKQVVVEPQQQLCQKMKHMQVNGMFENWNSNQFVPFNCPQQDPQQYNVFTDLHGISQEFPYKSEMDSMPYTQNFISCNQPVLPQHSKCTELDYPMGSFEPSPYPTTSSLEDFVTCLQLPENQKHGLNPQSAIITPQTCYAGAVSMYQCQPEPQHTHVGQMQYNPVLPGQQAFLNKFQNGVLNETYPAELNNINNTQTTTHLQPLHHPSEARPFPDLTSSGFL
Chain of AhR-ARNT heterodimer (human AhR, human ARNT) (Homo sapiens) (P27540 whole entry, chain 2 of 2): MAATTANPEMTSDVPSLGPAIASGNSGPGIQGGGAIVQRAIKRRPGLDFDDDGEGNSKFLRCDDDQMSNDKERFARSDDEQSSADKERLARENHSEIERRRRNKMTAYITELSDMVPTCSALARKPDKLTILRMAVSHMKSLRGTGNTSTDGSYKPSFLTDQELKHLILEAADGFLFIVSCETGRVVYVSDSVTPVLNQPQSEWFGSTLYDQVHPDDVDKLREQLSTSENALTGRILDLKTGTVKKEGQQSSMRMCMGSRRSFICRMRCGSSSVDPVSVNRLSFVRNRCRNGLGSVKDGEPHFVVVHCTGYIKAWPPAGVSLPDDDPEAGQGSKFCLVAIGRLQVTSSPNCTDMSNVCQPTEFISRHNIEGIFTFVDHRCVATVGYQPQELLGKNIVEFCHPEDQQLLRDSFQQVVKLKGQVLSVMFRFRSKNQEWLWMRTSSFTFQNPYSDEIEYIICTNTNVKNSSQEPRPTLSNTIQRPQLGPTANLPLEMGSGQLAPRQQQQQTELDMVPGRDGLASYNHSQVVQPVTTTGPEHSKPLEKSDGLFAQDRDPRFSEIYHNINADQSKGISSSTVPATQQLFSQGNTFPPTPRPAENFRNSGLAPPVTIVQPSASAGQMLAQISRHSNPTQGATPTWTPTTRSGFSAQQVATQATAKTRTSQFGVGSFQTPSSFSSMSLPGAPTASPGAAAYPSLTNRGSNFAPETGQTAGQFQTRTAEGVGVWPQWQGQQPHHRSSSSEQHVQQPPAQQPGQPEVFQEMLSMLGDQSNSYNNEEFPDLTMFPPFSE

| Substance | activity [1] [fold] | activity [2] [fold] |
| --- | --- | --- |
| DRE2-DRE3 reporter (pDRE23-Z) | 12 |  |
| eight LexA operator reporter (pSH18-34) |  | 90 |
